The nanobody polyreactivity screen of Harvey et al. (2022)

Test: yeast display, Sf9 membrane polyspecificity reagent, FACS + sequencing; frameworks hold sequencing errors
How it was run: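 Synthetic nanobody libraries on Saccharomyces cerevisiae BJ5465 were galactose-induced for 36–48 hours, stained 1 hour at 4 °C with 10% biotinylated, detergent-solubilized Sf9 membrane reagent and enriched on streptavidin microbeads. FACS then separated cells into low and high (top ~1%) gates by anti-HA (expression) and streptavidin (reagent binding) fluorescence. Genes were colony-PCR amplified, MiSeq 2 × 250 sequenced and CDR-length filtered. A clone's polyreactivity label is that of its gate of origin.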

Row | Sequence | polyreactivity (PSR sort gate)
1 | QVQLVESGGGLVQAGGSLRLSCAASGRTFTGYAMGWYRQAPGKERELVAAMSASGGSTYYADSVKGRFTISRDNAKNTVYLQMNSLKPEDTAVYYCAAETWYSVLWEEGYDYWGQGTQVTVSS | low polyreactivity
2 | QVQLVESGGGLVQAGGSLRLSCAASGRTFTGYTMGWYRQAPGKEREFVAAISSNGGRTYYADSVKGRFTISRDNAKNTVYIQMNSLKPEDTAVYYCAAPYTFWGQGTQVTVSS | high polyreactivity
3 | QVQLVESGGGLVQAGGSLRLSCAASGRTFTHNTMGWYRQAPGKERELVAAISRSGASTYYADSVKGRFTISRDNAKNTVYLQMNRLKPEDTAVYYCNAYSRPHFGYVVGTKSRHGYWGQGTQVTVSS | high polyreactivity
4 | QVQLVESGGGLVQAGGSLRLSCAASGRTFTHYAMGWYRQAPGKERELVAAISRSGGTTYYADSVKGRFTISRDNAKSTVYLQMNSLKPEDTAVYYCNAEVVDFELGVFEDYYWAYDYWGQGTQVTVSS | high polyreactivity
5 | QVQLVESGGGLVQAGGSLRLSCAASGRTFTHYAMGWYRQAPGKERELVAAISSGGGTYYADSVKGRFTISRDNAKNTVYLQMNSLKPEDTAVYYCNADYTNYHDPFRTYGYWGQGTQVTVSS | low polyreactivity
6 | QVQLVESGGGLVQAGGSLRLSCAASGRTFTINAMGWYRQAPGKERELVATIRVSGGSTYYADSVKGRFTISRDNAKNTVYLQMNSLKPEDTAVYYCAKGGTYFYAPAYDYWGQGTQVTVSS | low polyreactivity
7 | QVQLVESGGGLVQAGGSLRLSCAASGRTFTINTLGWYRQAAGKERELVAAIVGDGTTNYADSVKGLFTISGDNAKNTVDLQMNSLKPEDTAVYYCAADAGYLYDWPYNSYYWGQGTQLTVSS | low polyreactivity
8 | QVQLVESGGGLVQAGGSLRLSCAASGRTFTIYARGWYRQAPGKERELVAAIRRTGVSTYYADSVKGRFTISRDYAKNTVYLQMNSLKPEDTAVYYCAARQYSYLRLWWYEYWGQGTQVTVSS | high polyreactivity
9 | QVQLVESGGGLVQAGGSLRLSCAASGRTFTNNAMGWYRQAPGKERELVAAIRWSGGSTYYADSVKGRFTISRDNAKNTVYLQMNSLKPEDTAVYYCAKGYGYVEAVIVQYDYWGQGTQVTVSS | low polyreactivity
10 | QVQLVESGGGLVQAGGSLRLSCAASGRTFTPNAMGGYRQAPGKERELVAAIDWRGGRTYYADSVKGRFTISRDNAKNTVYLQMNSLKPEDSAVYYCAARVDGYHYKSAGYSYGVYYWGQGTQVTVSS | low polyreactivity
11 | QVQLVESGGGLVQAGGSLRLSCAASGRTFTPNAMGWYRQAPGKERELVASIRRGTSTYYADSVKGRFTISRDNAKNTVYLQMNSLKPEDTAVYYCAAKSYHGYPFDYWGQGTQVTVSS | high polyreactivity
12 | QVQLVESGGGLVQAGGSLRLSCAASGRTFTPYAMGWYRQAPGKERELVAAINSDGSTNYADSVKGRFTISRDNAKNTVYLHMNSLKPEDTAVYYCAAGYSLEGDYWGQGTQVTVSS | low polyreactivity
13 | QVQLVESGGGLVQAGGSLRLSCAASGRTFTPYAMGWYRQAPGKERELVATISSGTSTNYADSVNGRFTISRDNAKNTVYLQMNSLKPEDTAVYYCAADGYTYKFDYWGQGTQVTVSS | low polyreactivity
14 | QVQLVESGGGLVQAGGSLRLSCAASGRTFTPYDMGWYRQAPGKERELVAAITWRGGSTYYADSVKGRFTISRDNAKNTVYLQMNSLKPEDTAVYYCAKDRWTYAFRVGYGYWGQGTQVTVSS | high polyreactivity
15 | QVQLVESGGGLVQAGGSLRLSCAASGRTFTRNAMGWYRQAPGKERELVAAISYSGGSTYYADSVKGRFTISRDNAKNTVYLQMNSLKPEDTAVYYCNAATSRRSIRYDYWGQGTQVTVSS | high polyreactivity
16 | QVQLVESGGGLVQAGGSLRLSCAASGRTFTRYAMGWYRQAPGKERELVAAISWSGTSTHYADSVKGGFTISRDNATNTVYLQMNSLKPEDTAVYYCAARRYPVLKYDYWGQGTQVTVSS | high polyreactivity
17 | QVQLVESGGGLVQAGGSLRLSCAASGRTFTRYTMGWYRQAPGKERELVAAIRYSGGSTYYADSVKGRFTISRDNAKNTVYLQMNSLKPEDTAVYYCAARSYYYGFLYRYDYWGQGTQVTVSS | low polyreactivity
18 | QVQLVESGGGLVQAGGSLRLSCAASGRTFTSYAMGWYRQAPGKEREFVAAITTSGGSTYYTDSVKGRFTISRDNAKNTVYLQMNSLKPEDTAVYYCAAYVAYDRSGQYDYWGQGTQVTVSS | high polyreactivity
19 | QVQLVESGGGLVQAGGSLRLSCAASGRTFTSYAMGWYRQAPGKERELVAGISSGGSTFYADSVKGRFTISRDNAQNTVYLQMNSLKPEDTAVYYCAADFRRVFSKYSYYLYFDFDYWGQGTQVTVSS | low polyreactivity
20 | QVQLVESGGGLVQAGGSLRLSCAASGRTFTVNRMGWYRQAPGKERELVAGITLRGANTYYADSVKGRFTISRDNAKNTVYLQMNSLKPEDTAVYYCNDDVKYRYNHWGQGTQVTVSS | high polyreactivity
21 | QVQLVESGGGLVQAGGSLRLSCAASGRTFTVYAMGWYRPAPGKERELVAAISSGGITYYADSVKGRFTISRDNAKNTVYLQMNSLKPEDTAVYYCNTKSGKARYEFGYWGQGTQVTVSS | low polyreactivity
22 | QVQLVESGGGLVQAGGSLRLSCAASGRTFTVYAMGWYRQAPGKEREFVASISKSGGRTYYADSVKGRFTISRDNAKNTVYLQMNSLKPEDTAVYYCAKVETYLQIAYRRGYDSWGQGTQVTVSS | low polyreactivity

Row | Sequence | polyreactivity (PSR sort gate)
23 | QVQLVESGGGLVQAGGSLRLSCAASGRTFTVYAMGWYRQAPGKERELVATISGSTGSTYYADSVKGRFTISRDNAKNTVYLQMNSLKPEDTAVYYCAARVRYRYLIGSGFDYWGQGTQVTVSS | low polyreactivity
24 | QVQLVESGGGLVQAGGSLRLSCAASGRTFTYNAMGWYRQAPGKDRELVASIRRSGTITYSADSVKGRFTISRDNAKNTVYLQMNSLKPEDTAVYYCAARYPWYRYYSWGQGTQVTVSS | high polyreactivity
25 | QVQLVESGGGLVQAGGSLRLSCAASGRTFTYNAMGWYRQAPGKERELVAAISSSGGRTYYADSVKGRFTISRDNAKNTVYLQMNSLKPEDTAVYYCNKVKYRFSPPGYDYWGQGTQVTVSS | high polyreactivity
26 | QVQLVESGGGLVQAGGSLRLSCAASGRTFTYNTMGWYRQETGKQRELVAAISSSGGSTYYADSVKGRFTISRDNAKNTVYLQMNSLKPEDTAVYYCAKRYFSSSRYYYWGQGTQVTVSS | high polyreactivity
27 | QVQLVESGGGLVQAGGSLRLSCAASGRTFTYNVLGWYRVAPGKERELVAAITSGGSNYADSVKGRFTISRDNAKNTVYLQLNSLKPEDTAGYYCATDYYDDVTIGYDYWGPGTQVTVSS | low polyreactivity
28 | QVQLVESGGGLVQAGGSLRLSCAASGRTFTYYAMGWYIQAPGKERELVAAISSGGRTYYADSVKGRFTISRDNAKNTVYLQMNSLKPEDTAVYYCAADAYRSPWRLYGSRFGYWGQGTQVTVSS | high polyreactivity
29 | QVQLVESGGGLVQAGGSLRLSCAASGRTFTYYAMGWYRQAPGKERELVAAISRGGGSTHYADSVKGRFTISRDNEKNTVYLQMNSLKPEDTAVYYCAARYSTRYKYDYWGQGTQVTVSS | high polyreactivity
30 | QVQLVESGGGLVQAGGSLRLSCAASGRTFTYYAMGWYRQAPGKERELVAAITGRGGRTYYADSVKGRFTISRDIAKNTVYLQMNSLKREDTAVYYCATRDPYYSSEYTYGYWGQGTQVTVSS | high polyreactivity
31 | QVQLVESGGGLVQAGGSLRLSCAASGRTFTYYAMGWYRRAPGKERELVAAIRWTGDSTYYADSVKGRFTISRDNAKNTVYLQMNSLKPEHTAVYYCATQARWQYDGGIRWYYYWGQGTQVTVSS | high polyreactivity
32 | QVQLVESGGGLVQAGGSLRLSCAASGRTFTYYTMGWYRQAPGKERELVAAITWSGGRTYYADSVKGRFTISRDNAKNTVYLQMNSLKPEDTAVYYCAKPPQGTYDYWGQGTQVTVSS | low polyreactivity
33 | QVQLVESGGGLVQAGGSLRLSCAASGRTFVANGMGGYRQAPGKERELVAAINYGDDTYYADSVKGRFTISRDNAKNTVYLQMNSQKPEDTAFYFLAADIIYGYEVYTYTSDYWGQGTQVTVSS | low polyreactivity
34 | QVQLVESGGGLVQAGGSLRLSCAASGRTFVDYDMGWYRQAPGKERELVADINSGGSTYYADSVKGRFTISRDNAKNTVYLQMNSQKPEDTAVYDCAVRSRGTAPQYYYWGQGTQVTVSS | high polyreactivity
35 | QVQLVESGGGLVQAGGSLRLSCAASGRTFVENAMGWYRQAPGKERELVAAITYRGGRTFYADSVKGRFTISRDNAKNTVYLQMNSLKPEDTAVYYCNAVRRTGGHGDYWGQGTQVTVSS | high polyreactivity
36 | QVQLVESGGGLVQAGGSLRLSCAASGRTFVEYAMGWYRPAPGKERELVAAITWDGGSTYYADSVKGRFTISRDNAKYTVYLQMNSLKPEDTAVYYCNADYRQITSYGFDYWGQGTQVTVSS | low polyreactivity
37 | QVQLVESGGGLVQAGGSLRLSCAASGRTFVFYAMGWYRQAPGKESEFVARITWSGGRTFYADSVKGRFTISRDNAKNTVYLQMNSLKPEDTAVYYCAARGHDAVIATRYDYWGQGTQVTVSS | high polyreactivity
38 | QVQLVESGGGLVQAGGSLRLSCAASGRTFVFYTMGWYRQAPGKERELVAAINSRGGRTYYADSVKGRFTISRDNAKNPVYLQMNSLKPEDTAVYYCNAAFYVTDHDYWGKGTQVTVSS | high polyreactivity
39 | QVQLVESGGGLVQAGGSLRLSCAASGRTFVGNAIGWYRQATGKERELVAAINGSGGSTYYEDSVKGRFTISRDNAKNTVYLQMNSLKPEDPAVYYCNARPGVYVVIYDYWGQGTQVTVSS | low polyreactivity
40 | QVQLVESGGGLVQAGGSLRLSCAASGRTFVGYAMGWYRQAPGKERELVAAISGGGRTNYADSVKGRFTISRDNAKNTVYLQMISLKPEDTAVYYFAARLVKYFRPYDYWGQGTQVTVSS | high polyreactivity
41 | QVQLVESGGGLVQAGGSLRLSCAASGRTFVGYAMGWYRQAPGKERELVAAITSGGSTYYADSVKGRFTISRDNAKNTVYLQMNSLKPEDTAVYYCATALYDWYSLEFDYWGQGTQVTVSS | low polyreactivity
42 | QVQLVESGGGLVQAGGSLRLSCAASGRTFVGYAMGWYRQAPGKERELVAAMSASGTSTYYADSVKGRFTISRDNAKNTVYLQMNSLKPEDTAVYYCAKAKDLPPRYGSWGQGTQVTVSS | high polyreactivity
43 | QVQLVESGGGLVQAGGSLRLSCAASGRTFVIYAMGWYRQAPGKASELVAGIDSGTSTYADSVKGRFTISRDNAKNTVYLQMNSLKPEDTAVYYCAADFAPDGSGWYIPGDYDSWGQGTQVTVSS | low polyreactivity
